What was measured:
Details in all cases: both partners purified
[1] = target: T1, human toll-like receptor 4, His-tagged (human, UniProt O00206 24-631); experiment: SPR; IAsys plus resonant mirror biosensor; TLR4-His immobilised; 37 °C; 20 mM PBS, 50 mM NaCl
T1 construct: toll-like receptor 4, human; called the extracellular domain of TLR4 in the results; described as a 100 kDa protein with isoelectric point 5.88; Coupled covalently to the carboxylate cuvette by EDC/NHS 'via the N-terminus of the poly-His tail'; also called TLR4; TLR4-His; source: pEF-BOS TLR4 plasmid, transfected in HCT-116 cell line (author contributions)
T1 sequence (O00206 24-631): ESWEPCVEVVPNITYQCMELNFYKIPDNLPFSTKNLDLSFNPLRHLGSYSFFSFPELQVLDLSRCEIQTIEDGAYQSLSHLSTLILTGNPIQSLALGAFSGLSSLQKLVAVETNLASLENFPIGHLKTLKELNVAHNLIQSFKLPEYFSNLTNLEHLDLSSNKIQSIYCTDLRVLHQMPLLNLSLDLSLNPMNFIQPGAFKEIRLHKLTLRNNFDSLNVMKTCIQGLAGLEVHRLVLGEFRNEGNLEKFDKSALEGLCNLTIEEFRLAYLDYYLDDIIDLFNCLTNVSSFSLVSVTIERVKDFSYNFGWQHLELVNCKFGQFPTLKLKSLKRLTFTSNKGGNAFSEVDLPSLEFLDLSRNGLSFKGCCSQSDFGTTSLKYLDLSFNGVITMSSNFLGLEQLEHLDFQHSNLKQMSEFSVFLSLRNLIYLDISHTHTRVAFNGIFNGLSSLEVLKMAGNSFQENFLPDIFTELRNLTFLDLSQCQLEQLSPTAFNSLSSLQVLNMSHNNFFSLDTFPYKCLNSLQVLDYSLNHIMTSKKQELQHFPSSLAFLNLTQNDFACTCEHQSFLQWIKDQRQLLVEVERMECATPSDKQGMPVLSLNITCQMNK

[2] = target: T1, human toll-like receptor 4, His-tagged; experiment: SPR; IAsys plus resonant mirror biosensor; TLR4-His immobilised; 37 °C; 20 mM PBS, no NaCl
[3] = target: T1, human toll-like receptor 4, His-tagged; experiment: SPR; IAsys plus evanescent wave/resonant mirror biosensor (the paper calls it surface plasmon resonance); TLR4-His covalently immobilised on carboxylate cuvette; 37 °C; PBS pH 7.4 with 140 mM NaCl; mono-exponential fits
[4] = target: T1, human toll-like receptor 4, His-tagged; experiment: as above; remark: listed apart in the source
[5] = target: T1, human toll-like receptor 4, His-tagged; experiment: SPR; IAsys plus resonant mirror biosensor; TLR4-His immobilised; 37 °C; 20 mM PBS, 25 mM NaCl
[6] = target: T1, human toll-like receptor 4, His-tagged; experiment: SPR; IAsys plus evanescent wave/resonant mirror biosensor (the paper calls it surface plasmon resonance); TLR4-His covalently immobilised on carboxylate cuvette; 37 °C; PBS pH 7.4 with 140 mM NaCl; mono-exponential fits; remark: listed apart in the source

Row | Binder | Kd [1] [nM] | koff [1] [s⁻¹] | kon [1] [M⁻¹ s⁻¹] | Kd [2] [nM] | koff [2] [s⁻¹] | kon [2] [M⁻¹ s⁻¹] | Kd [3] [nM] | koff [3] [s⁻¹] | kon [3] [M⁻¹ s⁻¹] | Kd [4] [nM] | stoichiometry N [4] | Kd [5] [nM] | koff [5] [s⁻¹] | kon [5] [M⁻¹ s⁻¹] | Kd [6] [nM] | koff [6] [s⁻¹] | kon [6] [M⁻¹ s⁻¹]
1 | wheat amylase trypsin inhibitor CM3 (natural protein, UniProt P17314 26-168, looked up, also called ATI; wheat ATI CM3) SGSCVPGVAFRTNLLPHCRDYVLQQTCGTFTPGSKLPEWMTSASIYSPGKPYLAKLYCCQELAEISQQCRCEALRYFIALPVPSQPVDPRSGNVGESGLIDLPGCPREMQWDFVRLLVAPGQCNLATIHNVRYCPAVEQPLWI | 18 | 0.0007 | 40000 | 2.3 | 0.0001 | 43000 | 61 | 0.0025 | 41000 | 36 | 1 | 10 | 0.0004 | 39000 |  |  | 
2 | RSGNVGESGLI (stretch of wheat ATI CM3; also called straight peptide; StrP; source: synthetic peptide) [RSGNVGESGLI oligopeptide derived from wheat ATI CM3] |  |  |  |  |  |  |  |  |  |  | 1 |  |  |  | 1400 | 0.005 | 3620
